Residue numbers refer to the chain shown, from its start.

Test [1] addresses T1, integrin αvβ1 ectodomain (immobilized) (Homo sapiens (Human), UniProt P06756 31-992; P05556 21-728).
T1 construct: R&D Systems; copies: 1 + 1
The test can be described thus: binding to immobilized ectodomains.

The target in test [2] is T2, integrin αvβ5 ectodomain (immobilized) (Homo sapiens (Human), UniProt P06756 31-992; P18084 24-719).
T2 construct: R&D Systems; copies: 1 + 1
The test can be described thus: binding to immobilized ectodomains.

For test [3], the target named is T3, integrin αvβ6 ectodomain (immobilized) (human, UniProt P06756 31-992; P18564 22-709).
T3 construct: extracellular domain; Bought from R&D Systems or made in ExpiCHO cells; also called immobilized human αvβ6
T3 sequence (P06756 31-992, chain 1 of 2): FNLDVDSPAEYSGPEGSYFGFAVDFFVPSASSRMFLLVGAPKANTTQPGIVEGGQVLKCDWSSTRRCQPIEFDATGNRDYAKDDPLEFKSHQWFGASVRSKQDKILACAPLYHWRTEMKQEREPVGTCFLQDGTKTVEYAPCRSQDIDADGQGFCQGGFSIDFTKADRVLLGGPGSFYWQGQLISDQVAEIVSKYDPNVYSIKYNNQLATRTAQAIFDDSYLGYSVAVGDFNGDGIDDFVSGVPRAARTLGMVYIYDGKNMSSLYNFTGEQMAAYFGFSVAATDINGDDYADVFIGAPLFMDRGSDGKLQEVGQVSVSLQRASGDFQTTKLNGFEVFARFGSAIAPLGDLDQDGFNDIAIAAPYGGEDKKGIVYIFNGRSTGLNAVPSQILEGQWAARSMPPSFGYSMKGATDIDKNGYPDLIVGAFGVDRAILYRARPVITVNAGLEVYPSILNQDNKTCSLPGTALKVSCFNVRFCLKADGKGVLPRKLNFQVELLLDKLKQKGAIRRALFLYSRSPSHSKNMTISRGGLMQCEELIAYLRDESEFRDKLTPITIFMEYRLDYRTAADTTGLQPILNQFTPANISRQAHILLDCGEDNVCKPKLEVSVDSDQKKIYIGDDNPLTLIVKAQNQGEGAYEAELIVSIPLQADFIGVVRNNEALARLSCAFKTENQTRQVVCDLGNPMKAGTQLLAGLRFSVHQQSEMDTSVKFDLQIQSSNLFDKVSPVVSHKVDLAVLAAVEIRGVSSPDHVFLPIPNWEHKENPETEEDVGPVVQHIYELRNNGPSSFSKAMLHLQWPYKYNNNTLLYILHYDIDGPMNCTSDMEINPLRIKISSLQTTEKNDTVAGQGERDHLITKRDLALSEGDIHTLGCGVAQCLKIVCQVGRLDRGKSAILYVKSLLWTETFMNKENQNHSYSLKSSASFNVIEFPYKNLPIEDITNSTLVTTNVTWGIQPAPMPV
T3 sequence (P18564 22-709, chain 2 of 2): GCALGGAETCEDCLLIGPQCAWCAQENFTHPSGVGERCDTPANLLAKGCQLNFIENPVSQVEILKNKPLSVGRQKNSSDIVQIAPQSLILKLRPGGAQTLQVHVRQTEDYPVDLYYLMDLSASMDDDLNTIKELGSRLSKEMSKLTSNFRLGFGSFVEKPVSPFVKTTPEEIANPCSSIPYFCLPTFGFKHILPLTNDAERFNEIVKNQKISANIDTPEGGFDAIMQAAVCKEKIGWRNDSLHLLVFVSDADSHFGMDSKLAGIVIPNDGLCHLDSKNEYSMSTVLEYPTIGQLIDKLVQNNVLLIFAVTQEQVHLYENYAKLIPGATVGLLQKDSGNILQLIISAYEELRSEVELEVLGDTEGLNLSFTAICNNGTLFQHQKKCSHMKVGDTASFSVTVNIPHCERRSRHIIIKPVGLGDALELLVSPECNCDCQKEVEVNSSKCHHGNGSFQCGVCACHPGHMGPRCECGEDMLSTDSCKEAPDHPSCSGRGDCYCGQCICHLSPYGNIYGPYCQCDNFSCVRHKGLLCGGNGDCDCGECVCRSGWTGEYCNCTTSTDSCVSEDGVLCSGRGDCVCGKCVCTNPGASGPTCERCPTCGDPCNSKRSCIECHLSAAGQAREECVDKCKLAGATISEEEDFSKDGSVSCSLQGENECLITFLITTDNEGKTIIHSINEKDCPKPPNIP
Kind of test: binding to immobilized αvβ6 ectodomain.

Test [4] deals with T4, human integrin αvβ8 on transfected cells (CHO cells stably transfected; HEK 293 cells stably expressing αvβ8) (human, UniProt P06756 31-1048; P26012 43-769).
T4 construct: whole, on cells; also called CHO αvβ8 cells; αvβ8 expressing CHO cells
The test can be described thus: flow cytometry on HEK 293 cells stably expressing αvβ8. The source says:
(§1) FIG. 33 H4C8 RGD3 and H4C8 RGD1 show specificity for αvβ6 and αvβ8, VL Fr4 K108/V109 humanization improves or maintains binding, VH Fr4 Q72 improves binding over E72. A) Binding of anti-β3 (AP3) relative to F12 IgG4, H4C8 RGD1 IgG4,H4C8 RGD3 IgG4, H3C8 RGD3 with VL Fr4 V108/L109 (mouse) IgG4, H4C8 RGD3 IgG4, H3C8 RGD3 VL Fr4 K108/V109 (human) IgG4, H4C8 RGD1 VH Fr3 E72, H4C8 RGD3 VH Fr3 E72 IgG4. HEK 293 cells stably expressing αvβ3 were stained and the percentage of relative binding to the mean fluorescence intensity of AP3 is shown, B) Expi293 cells transiently expressing αvβ6 were stained and the percentage of relative binding to the mean fluorescence intensity of 3G9 is shown, C) HEK 293 cells stably expressing αvβ8 were stained and the percentage of relative binding to the mean fluorescence intensity of HuF12 is shown. All primary antibodies were used at 2.5 ug/ml. […] Binding or 3G9 is shown and percent binding of antibodies relative to 3G9 binding to αvβ6 is shown. Dotted line indicate binding observed with each positive control antibody, […]

Test [5] deals with T5, integrin αvβ6 on transfected cells (CHO cells; Expi293 cells transiently expressing αvβ6) (human, UniProt P06756 31-1048; P18564 22-788).
T5 construct: whole, on cells; Legend says 'CHO cells expressing human αvβ8 or αvβ6'; read as human; also called αvβ6 expressing CHO cells
T5 sequence (P06756 31-1048, chain 1 of 2): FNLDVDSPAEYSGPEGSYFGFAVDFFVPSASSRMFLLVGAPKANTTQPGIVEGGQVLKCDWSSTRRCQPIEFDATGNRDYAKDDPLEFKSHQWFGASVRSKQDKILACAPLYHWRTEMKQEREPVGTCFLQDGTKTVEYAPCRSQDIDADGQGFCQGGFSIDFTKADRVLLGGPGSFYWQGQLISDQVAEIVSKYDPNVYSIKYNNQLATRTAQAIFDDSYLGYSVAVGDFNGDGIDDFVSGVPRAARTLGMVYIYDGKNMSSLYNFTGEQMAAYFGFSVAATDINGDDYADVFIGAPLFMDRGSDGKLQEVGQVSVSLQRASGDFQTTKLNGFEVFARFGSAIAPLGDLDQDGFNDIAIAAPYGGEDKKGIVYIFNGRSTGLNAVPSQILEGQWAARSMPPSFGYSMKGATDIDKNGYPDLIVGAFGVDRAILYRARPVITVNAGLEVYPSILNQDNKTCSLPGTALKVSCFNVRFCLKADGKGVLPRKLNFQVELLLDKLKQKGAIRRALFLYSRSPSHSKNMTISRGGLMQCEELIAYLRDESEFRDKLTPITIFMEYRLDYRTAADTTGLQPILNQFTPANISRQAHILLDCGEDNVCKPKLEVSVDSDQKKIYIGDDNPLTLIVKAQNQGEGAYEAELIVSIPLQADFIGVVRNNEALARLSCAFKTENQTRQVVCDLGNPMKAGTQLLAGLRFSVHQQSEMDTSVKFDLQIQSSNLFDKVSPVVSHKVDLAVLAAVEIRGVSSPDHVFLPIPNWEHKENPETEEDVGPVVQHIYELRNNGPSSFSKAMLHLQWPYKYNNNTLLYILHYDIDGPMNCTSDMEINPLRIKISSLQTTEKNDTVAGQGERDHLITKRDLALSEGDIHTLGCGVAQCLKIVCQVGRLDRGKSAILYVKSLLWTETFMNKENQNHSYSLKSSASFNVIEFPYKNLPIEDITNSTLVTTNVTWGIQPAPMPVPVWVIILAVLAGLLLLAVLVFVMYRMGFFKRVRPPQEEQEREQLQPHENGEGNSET
T5 sequence (P18564 22-788, chain 2 of 2): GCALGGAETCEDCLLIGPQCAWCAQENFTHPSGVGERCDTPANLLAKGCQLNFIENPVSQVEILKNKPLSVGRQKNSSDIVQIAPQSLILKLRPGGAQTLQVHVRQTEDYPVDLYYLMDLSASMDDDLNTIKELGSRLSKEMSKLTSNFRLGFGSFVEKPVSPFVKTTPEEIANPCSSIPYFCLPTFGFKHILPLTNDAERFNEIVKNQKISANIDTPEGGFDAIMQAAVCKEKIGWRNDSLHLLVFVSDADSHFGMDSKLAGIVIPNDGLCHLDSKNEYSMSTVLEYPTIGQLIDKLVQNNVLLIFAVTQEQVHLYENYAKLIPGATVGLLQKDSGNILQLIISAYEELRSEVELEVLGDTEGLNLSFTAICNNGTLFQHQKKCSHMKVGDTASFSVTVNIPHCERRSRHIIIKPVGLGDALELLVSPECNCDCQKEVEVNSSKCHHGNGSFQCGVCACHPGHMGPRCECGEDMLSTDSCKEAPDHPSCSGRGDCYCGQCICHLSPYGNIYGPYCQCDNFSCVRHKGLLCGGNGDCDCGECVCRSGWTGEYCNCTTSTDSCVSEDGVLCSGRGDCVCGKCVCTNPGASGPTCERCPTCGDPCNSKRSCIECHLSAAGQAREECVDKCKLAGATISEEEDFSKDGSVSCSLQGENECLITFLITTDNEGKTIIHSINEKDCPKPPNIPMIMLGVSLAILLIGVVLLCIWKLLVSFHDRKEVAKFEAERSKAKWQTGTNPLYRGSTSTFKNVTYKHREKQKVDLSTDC
The test can be described thus: flow cytometry on Expi293 cells transiently expressing αvβ6, antibody at 2.5 µg/ml. As for the experimental part:
HEK 293 cells stably expressing αvβ3 were stained and the percentage of relative binding to the mean fluorescence intensity of AP3 is shown, B) Expi293 cells transiently expressing αvβ6 were stained and the percentage of relative binding to the mean fluorescence intensity of 3G9 is shown, C) HEK 293 cells stably expressing αvβ8 were stained and the percentage of relative binding to the mean fluorescence intensity of HuF12 is shown. All primary antibodies were used at 2.5 ug/ml. […] Binding or 3G9 is shown and percent binding of antibodies relative to 3G9 binding to αvβ6 is shown. Dotted line indicate binding observed with each positive control antibody,
RGD ligands bind promiscuously to a number of integrins. A highly desirable quality in RGD-mimetics is to retain specificity for some but not all integrins. One highly desirable property would be a dual inhibitor to both the αvβ8- and αvβ6-integrins, without cross-reactivity to other integrins. This property would facilitate specific targeting of integrin-mediated TGF-β activation without the liability of side-effects mediated by broadly blocking other integrins. We first measured binding to αvβ3 expressing 293 cells. […] Expi293 cells transiently expressing αvβ6 were stained and the percentage of relative binding to the mean fluorescence intensity of anti-β6 (3G9) determined. […]

Test [6] concerns the target T6, integrin αvβ3 on HEK 293 cells stably expressing αvβ3 (Homo sapiens (Human), UniProt P06756 31-1048; P05106 27-788).
T6 construct: also called αvβ3 expressing 293 cells
Kind of test: flow cytometry on HEK 293 cells stably expressing αvβ3. The source says:
A) Binding of anti-β3 (AP3) relative to F12 IgG4, H4C8 RGD1 IgG4,H4C8 RGD3 IgG4, H3C8 RGD3 with VL Fr4 V108/L109 (mouse) IgG4, H4C8 RGD3 IgG4, H3C8 RGD3 VL Fr4 K108/V109 (human) IgG4, H4C8 RGD1 VH Fr3 E72, H4C8 RGD3 VH Fr3 E72 IgG4. HEK 293 cells stably expressing αvβ3 were stained and the percentage of relative binding to the mean fluorescence intensity of AP3 is shown, B) Expi293 cells transiently expressing αvβ6 were stained and the percentage of relative binding to the mean fluorescence intensity of 3G9 is shown, C) HEK 293 cells stably expressing αvβ8 were stained and the percentage of relative binding to the mean fluorescence intensity of HuF12 is shown. All primary antibodies were used at 2.5 ug/ml. […] Binding or 3G9 is shown and percent binding of antibodies relative to 3G9 binding to αvβ6 is shown. Dotted line indicate binding observed with each positive control antibody,
RGD ligands bind promiscuously to a number of integrins. A highly desirable quality in RGD-mimetics is to retain specificity for some but not all integrins. One highly desirable property would be a dual inhibitor to both the αvβ8- and αvβ6-integrins, without cross-reactivity to other integrins. This property would facilitate specific targeting of integrin-mediated TGF-β activation without the liability of side-effects mediated by broadly blocking other integrins. We first measured binding to αvβ3 expressing 293 cells. Binding of anti-β3 (AP3) relative to F12 IgG4, H4C8 RGD1 IgG4,H4C8 RGD3 IgG4, H3C8 RGD3 with VL Fr4 V108/L109 (mouse) IgG4, H4C8 RGD3 IgG4, H3C8 RGD3 VI Fr4 K108/V109 (human) IgG4, H4C8 RGD1 Vh Fr3 E72, H4C8 RGD3 Vh Fr3 E72 IgG4. […] Expi293 cells transiently expressing αvβ6 were stained and the percentage of relative binding to the mean fluorescence intensity of anti-β6 (3G9) determined.

Test [7] concerns the target T4, human integrin αvβ8 on transfected …. The test can be described thus: flow cytometry on HEK 293 cells stably expressing αvβ8, antibody at 2.5 µg/ml.
Description: as §1

For test [8], the target named is recombinant human integrin αvβ8 ectodomain (human, UniProt P06756 31-992; P26012 43-681). Kind of test: cell-based or functional assay.
The target of test [9] is T5, integrin αvβ6 on transfected cells (CHO …). The test can be described thus: flow cytometry on CHO cells expressing αvβ6, antibodies as IgG4.
For test [10], the target named is T1, integrin αvβ1 ectodomain (immobilized). Kind of test: binding to immobilized integrin ectodomains blocked with BSA.
Test [11] addresses T3, integrin αvβ6 ectodomain (immobilized). Described as above.
The target in test [12] is T2, integrin αvβ5 ectodomain (immobilized). The test is described as above.

T6 sequence (P06756 31-1048 limits assumed, chain 1 of 2): as the sequence (P06756 31-1048, chain 1 of 2) above
T6 sequence (P05106 27-788 limits assumed, chain 2 of 2): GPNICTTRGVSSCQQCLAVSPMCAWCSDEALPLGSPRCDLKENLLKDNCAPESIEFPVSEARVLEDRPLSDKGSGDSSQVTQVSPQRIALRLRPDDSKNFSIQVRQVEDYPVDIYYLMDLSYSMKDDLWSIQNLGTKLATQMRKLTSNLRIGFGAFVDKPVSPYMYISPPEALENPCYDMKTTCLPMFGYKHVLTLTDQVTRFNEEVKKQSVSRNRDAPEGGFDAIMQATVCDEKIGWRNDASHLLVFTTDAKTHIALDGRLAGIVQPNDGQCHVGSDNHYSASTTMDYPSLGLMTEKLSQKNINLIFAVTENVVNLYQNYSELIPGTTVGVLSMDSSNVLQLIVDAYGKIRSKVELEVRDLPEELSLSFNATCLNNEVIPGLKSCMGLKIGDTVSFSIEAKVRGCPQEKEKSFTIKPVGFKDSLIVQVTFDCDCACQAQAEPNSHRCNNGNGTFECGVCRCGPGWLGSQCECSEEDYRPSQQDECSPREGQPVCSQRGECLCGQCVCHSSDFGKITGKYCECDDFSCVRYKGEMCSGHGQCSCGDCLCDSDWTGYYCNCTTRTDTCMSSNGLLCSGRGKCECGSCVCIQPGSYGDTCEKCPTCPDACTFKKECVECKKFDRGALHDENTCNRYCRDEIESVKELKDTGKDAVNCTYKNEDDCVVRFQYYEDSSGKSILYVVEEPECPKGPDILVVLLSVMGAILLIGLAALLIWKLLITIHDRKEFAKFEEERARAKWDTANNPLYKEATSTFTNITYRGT
T1 sequence (P06756 31-992 limits assumed, chain 1 of 2): as the sequence (P06756 31-992, chain 1 of 2) above
T1 sequence (P05556 21-728 limits assumed, chain 2 of 2): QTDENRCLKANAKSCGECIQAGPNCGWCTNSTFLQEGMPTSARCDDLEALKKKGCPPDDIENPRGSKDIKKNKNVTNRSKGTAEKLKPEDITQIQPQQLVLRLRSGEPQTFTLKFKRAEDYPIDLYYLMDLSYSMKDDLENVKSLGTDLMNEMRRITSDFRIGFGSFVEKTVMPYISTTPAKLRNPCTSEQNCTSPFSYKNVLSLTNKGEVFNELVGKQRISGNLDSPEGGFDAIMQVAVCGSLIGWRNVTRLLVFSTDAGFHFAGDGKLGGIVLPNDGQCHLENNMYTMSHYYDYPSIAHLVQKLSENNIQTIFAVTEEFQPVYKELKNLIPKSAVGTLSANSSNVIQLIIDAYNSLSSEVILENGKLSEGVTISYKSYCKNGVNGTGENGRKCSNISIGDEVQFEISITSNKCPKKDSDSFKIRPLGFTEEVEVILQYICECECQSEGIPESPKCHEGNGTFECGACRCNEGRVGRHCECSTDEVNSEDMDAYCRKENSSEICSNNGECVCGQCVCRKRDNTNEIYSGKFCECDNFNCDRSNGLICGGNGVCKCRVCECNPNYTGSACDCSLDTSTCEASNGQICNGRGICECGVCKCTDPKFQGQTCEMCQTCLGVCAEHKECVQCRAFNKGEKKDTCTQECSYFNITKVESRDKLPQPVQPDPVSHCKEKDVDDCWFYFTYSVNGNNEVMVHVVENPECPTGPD

B1: H4C8 RGD1 VH Fr3 E72 (antibody, IgG4, V domains shown)
VH: QVQLVQSGAEVKKPGASVKVSCKVSGYTLTRQSMHWVRQAPGKGLEWMGRINTETGEPTYAQKFQGRVTMTEDTSTDTAYMELSSLRSEDTAVYFCAIFYYGRDTWGQGTTVTVSS
VL: EIVMTQSPATLSVSPGERVTLSCKSSQSLLRRGDLATIHGNALAWYQQKPGQAPRLLIYWASTRETGVPARFSGSGSGTEFTLTISSLQSEDFAVYYCKQSYNLLSFGQGTKVEIKR
B1: the binding result is reported as “no binding” in test [1]; “no binding” in test [2]; “binds” in [3]; “no binding (tested: 2.5 µg/ml)” in test [4]; “binds” in test [5]; “no binding (tested: 2.5 µg/ml)” in test [6].

B2: H4C8 RGD3 VH Fr3 E72 IgG4 (antibody, V domains shown)
VH: B1 VH
VL: B1 VL with R31G, A36G, T37R, I38L, H39K, G40K
notes: IgG4
In the case of B2, the binding result in [1] is on record as “no binding”; in test [2], “no binding”; in test [3], “binds”; in [7], “binds”; in test [5], “binds”; in test [6], “no binding (tested: 2.5 µg/ml)”.

B3: HuC6D4 F12 IgG4 (antibody)
heavy: QIQLVQSGAEVKKPGASVKISCKASGYTFTKYSMHWVRQAPGQGLEWVARINTETGEPTFADDFRGRFTVTLDTSTSTAYLEIRSLRSDDTAVYFCAIFYYGRDTWGQGTTLTVSSASTKGPSVFPLAPCSRSTSESTAALGCLVKDYFPEPVTVSWNSGALTSGVHTFPAVLQSSGLYSLSSVVTVPSSSLGTKTYTCNVDHKPSNTKVDKRVESKYGPPCPPCPAPEFLGGPSVFLFPPKPKDTLMISRTPEVTCVVVDVSQEDPEVQFNWYVDGVEVHNAKTKPREEQFNSTYRVVSVLTVLHQDWLNGKEYKCKVSNKGLPSSIEKTISKAKGQPREPQVYTLPPSQEEMTKNQVSLTCLVKGFYPSDIAVEWESNGQPENNYKTTPPVLDSDGSFFLYSKLTVDKSRWQEGNVFSCSVMHEALHNHYTQKSLSLSPGK
VL: EIVMTQSPATLSVSPGERVTMSCKSSQSLLHSRSRKNYLAWYQQKPGQAPRLLIYWASTRESGVPARFSGSGSGTEFTLTISSVQSEDFAVYYCKQSYNLLSFGQGTVLEIKR
notes: also called HuF12
As for B3, the “ED50 of the inhibition of αvβ8-mediated TGF-β activation (immobilized human αvβ8, TMLC GARP/L-TGF-β reporter cells)” value in test [8] amounted to 0.14 µg/mL. Moreover, the binding result in [9] is listed as “no binding (tested: 1 µg/mL)”; in [10] it was “no binding”; in test [11], “no binding”; in test [12], “no binding”; in test [6] it was “no binding (tested: 2.5 µg/ml)”.
